Source: US20250346668A1
Numbering of substitutions follows the chain as printed.

B1: mAb001 (antibody, V domains shown)
VH: QVQLQQSGPELVKPGASVKISCKASGYSFTNYYMHWVKQRPGQGLEWIGWTYPGNNNIKYNEKFKGKATLTADTSSSTAYMQLSSLTSEDSAVYYCARDGYGYYFFDYWGQGIILTVSS
VL: DIVMSQSPSSLAVSAGEKVTMSCKSSQSLLNNRTRKNYLAWYQQKPGQSPKLLIYWASTRESGVPDRFTGSGSGTDFTLTISSVQAEDLAIYYCKQSYTLRTFGGGTKLAIK
B2: mAb007 (antibody, V domains shown)
VH: QVQLQQSGPELVKPGASVKISCKASGSTFTDNYIHWVKQRPGQGLEWIGWIYPGSVNIKYNEKFKDKATLTADTSSTTAYMQLSSLSSEDSAIYYCARDISRYYFDYWGQGTTLTVSS
VL: B1 VL with K18R, S22N, N32S, I91V, Y98F, T99I

Target: Human CD3e/g protein (human) (UniProt P07766)
Assay: ELISA, coated hCD3e/g

Row | Binder | EC50 | OD450 nm at 0.000853 nM | OD450 nm at 0.0043 nM | OD450 nm at 0.02 nM | OD450 nm at 0.11 nM | OD450 nm at 0.53 nM | OD450 nm at 2.67 nM | OD450 nm at 13.3 nM | OD450 nm at 66.7 nM
1 | B1 | 0.21 nM | 0.207 OD450 nm | 0.12 OD450 nm | 0.24 OD450 nm | 0.89 OD450 nm | 3.2 OD450 nm | 3.64 OD450 nm | 3.67 OD450 nm | 3.67 OD450 nm
2 | B2 | 0.22 nM | 0.123 OD450 nm | 0.111 OD450 nm | 0.27 OD450 nm | 0.76 OD450 nm | 2.96 OD450 nm | 3.39 OD450 nm | 3.47 OD450 nm | 3.41 OD450 nm
